In the domain aggregation screens of Martell et al. (2025):

Test: soluble fraction after stress (log2 fold change); higher = more stays soluble; pooled small domains, quantitative proteomics
Conditions: stress: 75 degC
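Further: 20 min heating vs room temperature control held 20 min.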

Sequence | soluble fraction (log2)
HMNKTLTEQIYDELKSAIIELELKPGEFVTEEYLAEQLGVSRTPLKSAISKLIFEGLMAYEVGKGTYIS | -1.11
HMNKVQTFIIEKHIKEVFEHTNRTYYRSGQYYFQTRDEFSMALKRFLKDREPNKKNWIDSIINRA | -0.945
HMNKYQFESKIHIYRATKRMTQQELADLVGVSRQTIMQLERNRYNPSMMLAYGIAKVFDVTIEDLFDFSEV | -3.18
HMNKYYQQLLQADPTGFIDPFKDLGTYDSRLNTFKEPVSELLNPFSGRPYSKIWQKRIETMREIFISYIKS | -2.8
HMNLDVEQIKKEALNQLIEIGNENDGIVTIKDFKKIDDISSLDEDDIEDIRNLLIENNIEIFE | 0.0781
HMNLEQTIVLGKRLFNNALDTLGKKQRSIKNKQINKLLELLNFKNMNELYQSIGVGDKNPLLMAQMML | -0.775
HMNLESNQYVIDISDSQVINKDEFETILNQNKTKDIVIKSNNNVTFTFEKGSMIGAEGKDNYDFSSQVNY | -0.0852
HMNLFNEIEKQYQALQDRSSASLVDLRHLLLDIEELVNSPDYQALAPDQRSTLQAARKELMRRIQKQEN | 0.819
HMNLGDSLFHARRKQGLSQEAVAEQLGVSRQTVSKWEANETLPDIRQSKLMAKLYHTSLDELI | 0.0881
HMNLLDYTTLYVTSDGKSVSFGIAGKEIPVSYIAQEAPGTVVIDDTIRIPRKYDMEYILKRFNES | -1.2
HMNLLGDNIRKLRLEKGLGLNEVARLANITGGYLSSIENNKRTNVGTEILESIAKAIGVSVSDFYL | -0.347
HMNLLGERIREIRMEMGLTAKELAQRASVTPGYISQIEHDQIKPSMNVMMRIAEVLNVPMAALLM | -2.38
HMNLLPAGTYKLKDLVTAEDEEIGAKKGDVVIAHEDTPPSDRVLGVDIFPVIHKNTSKKIYVSLEDI | 0.322
HMNLMQIHVARPPNQLGVFSQEEVAAGLQSGRFLPTDQAWRDGMSAWTPLSQWAEFSSVVAAV | -0.217
HMNLNLDITTYKLEELENLLKLKPNYKQEQIFEAKTKMEKFILKSNLNESKREELYIFLDNIYNKLTNNLL | -2.94
HMNLPISDREKELLTLLSKGLLYKEIASKLDITIGTVKQHIHNIYHKLHVSNKTEALNLFNK | -1
HMNLRLKEVLDEKNMSLVTLSEKTGIEKGNLSAISNNKKNPTVETLSKIAKALQISLAELFESPP | 0.416
HMNLSDIETWLRELSLEKYALAFSEAEIDFETLPELTEDDLKEVGLPVGPRRKVWGAIQLLRTTD | -1.48
HMNLSNVVIRKVQEMILSGELQEGDKLPPEREMTQRLGIGRPALREGLKSLEMLGLVERRHGLGNFIINKV | -1.05
HMNLSPADFSSVRNALGLSLSTVAKESGINRNYLSNFEKKKHFLEETAKVKLRDYYMSIDPDAFAAAL | -0.408
HMNLVGGKINSLMTTKNVTIQDLSERSGLTVSQIELLLSGDKVPSLAVLIKIARGLGVRVGTFL | -1.12
HMNLVRQHTDYAFRLLVALSQAPGKPISTRTLASAADVPYQFASKIMQKLHEEGLVESVMGPFGGFRLVQ | -3.15
HMNLWIDNTQVINDWTEGASERSGSIYLTAGVKPIKMQYFDSVLNAKAILRWQGPGINKSVVPSSALTPG | -1.14
HMNMEDIADKIGRLYDNLPDDLKLMIKYRDIDDMTYDEIARKANLPIGTVRSRLHRARDILLREI | -1.07
HMNMFGIQRRNHLLSLLQEKKSITVQEAAVIFEVAEETIRRDFRTMEGQGLIVRTHGGALLADD | -4.21
HMNMMIIHVNGEKYSFQEPITISELILKLELDSRKIAIEYNLEILPRSLFEITSIKNGDKIEIVHFI | -3.43

Sequence | soluble fraction (log2)
HMNMPYGTVKWFNDAKGFGFIAPEDGSADVFVHFSAINSKGFRSLQEGQRVSYEVTTGPKGAQAAGVTPVT | -0.234
HMNMYTVTGRLVDQDGVPQANALVTIDSSSQQTRTSPQGFYLIKVFGTEPSTIKFLVDGYDPQIVNFTP | -0.466
HMNNDIDRVFAELTVLSQKKGYLVFDDIEKGTEDLSVNEVDWLTNRLLTSGVEIFDDVPDTIK | 0.347
HMNNDSQYLATLQRYYAEHRVLPSYARMLPLLGFASKAAVKKVLERLEVVGMLERTEDGDWAPSERFFER | -2.24
HMNNGYSINEIAKLMKMTLKVVRRYVASGELKTTKTNNTYSISEEAFNEFKKYIEEGGDAKHAQEVADTFK | -1.09
HMNNIGENIKKYRTKQGLSQEDFAKKSGVKYTTLTKIESGVIKKPSVLVMAKIAKALGVNIEELI | -1.64
HMNNIINEAQIKQWVEEFYLSVSPRPTRATMIALVHKKIKEETKDGEEGQTVSETLINNFYTALEKEHKRK | 0.216
HMNNIPFIITDERLNVIQSHLVPREVLDHPDRLRRQIDRFTEENQPKTVNYWWGPEHRHIIFYGKSK | 0.377
HMNNIYFSPVVEENNKGLRLDKFLAASFPEFSRSQLQRLILEGNVSNDDVVIADNSQKVRVGDSFQVIVPE | -0.018
HMNNKSDLLFNHLRQRIATMENGTIFPSVRQLMTEYNVSQSTVSTAIRSLKELGLLEALSRQGMVVRKE | -1.15
HMNNLGSKIKELRIAENLTQEKLAEELNVSFQSISRWENGISTPDISLIPAIARFFGVSTDYLFGLQD | -1.82
HMNNLPDFIKQLRKENNLTQEYVASEIGVSRPTYEQIEKGKRELTISEAEKLAKIFNIPLENFLQGKKGV | 0.122
HMNNPLPDLLKYFRKKKHLTQEQVAKQLSVSRASYASYETGRIIPGMQHIMELSRILEHDFLFAYTLAVQ | -2.41
HMNNPNFAIQKYVTGSDIKRVRKTLRLTQKKFAELVGVSKATMERWETKEDKITGPVVLLLKILEDHPEY | -1.55
HMNNQKATAVKVASGIVNLRSGPATSYETLDTVATGETLSVLAEKDGWFQVSRAGRTGWVAGWVVDVIRE | -0.499
HMNNSSIGERLKYQRKIKGYSQEELADRTNVTVRTIQRIEKEEVSPHLNTIKLLAIALDIEVDELVAL | -2.68
HMNNSVAYSTFLNDIRTNTLKDVDMTSNSETINVTKKDGTKYQTVMPMYDRDLLADLSKTDATVTGQP | 0.562
HMNNTIKFSVDIKNSGKRLDIFLSENVTQYTRSYLKRLIENSHVKLNNKILNSPSTKVKFQDQIIINNIE | -2.88
HMNNTIKFSVDTTNSGKRLDIFLAENIKQFTRSYLKKIISNNQVKLNNLVANSPSIKVKHSDLILINILE | -2.75
HMNNTVLSSVKSINMFLDANGGDAGQAFRIYNNTNPDSNPTESTYIFKVAEDGNTFVKGYLNLNGTTL | -0.267
HMNNVRIEHIDTIGTVRLHKKRGVKRVSLRIHQSGEIRVTQPLYLPFSAGVLFAKSHTEWIMKQKQK | 0.0763
HMNNWRRSLEREVTASLARGDRDIFDGLNRSFEAALITKALEHTGGRRIEAATLLGIGRNTLTRKIQDLGL | -2.11
HMNNYEGIVKSVSNSNVYIQVAGRTIGYTISPHTIIMVNGKNVPASELMPGQHVSYTNKGSKLSYININS | -1.17
HMNNYFPAYKGSATSIAPALKQMGVNNSYAYRSKIAAVNNITGYRGTPAQNTQMLNLLKQGRLIK | 0.349
HMNNYNDSVQKIINYIADNLNENLSVRKLADKMPMSVSHFNRVFQKYTGDSPYAYVMAMRIKKAKYL | -0.157
HMNPAIYIRKNILNLTQEKLSEYLDVTQPTIHRWEESGVIPAKHQRQIREFASEKGIYWNDSWFFSIPDE | -1.53

Sequence | soluble fraction (log2)
HMNPDMIAGVLKVPAAAGRLRSALFELGVVDDESYDDDGASRLTVTASQSDLERIVAQAGLVFEDVLVERR | -0.142
HMNPEAFIQTLKQILSTYEKNDPIYLQEIKADLVKKFRIEIPINALETYLKENGYSNIYLKR | -0.168
HMNPEDLSGVRKAAILLLTMDDEVTKDVMKGLDEEEIEAIGKEITNLKLIPDHVVHRVQEEFMTKVSK | 0.107
HMNPESRRSELIDAATKLFFSRGYTATSIRDILDAVDDRTASPSVFYYYFESKEAIYQAVLQRYTD | -2
HMNPETPAQQAVRKRLIVSVQFYRRLKDTPLKAVWQVAARDTLVNGYNLFLKRNIHAFNDRTLSTPSALS | -0.0445
HMNPFPDNTAEVLSQFKNIIVPELNTGQLSKLLRARYLVDTVGINKVEGLPFTAQELEEKIESLINSF | -0.428
HMNPGQIIRKLRQDQGMTLAVLAKYANLDPGNLSRIERDDLNISFNLLEKLSLILNVSPIVFFH | -0.119
HMNPLSELSFEERRELFLEAAVRLFEEKGYKNTSVEDIAGELGFTKKVFYYYWKNKREIVQEIHDRGMA | -0.594
HMNPNFIEVSHGRLRVNVPLSAYEGTTYHIKPEEAEKLKRTLASRYPWLTPNALKVFIEEAEQAMRERIQ | -0.403
HMNPSKEFNMSDLLKAKMVGDVSAAKRREKAGALLHIGYGNAKTFLKKLNHFSISREEWDKVIAAMEEF | -1.26
HMNPSVSSDERILLQKALGILSAEQKQIVMLHAVAGIKHREIAKLLDMPIATVLSKYSRAVNKLRHAMEA | -0.456
HMNPTTDFFKLEGIDATRILVFDQVGRQVAQFSQPAQQMDIQALPAGVYALRIENADGQVYSARIVK | -0.231
HMNPVVATTIILDGEIIKDNLAEANLSEEWLLEELKRQNFNDVKEVFYAEWLDGKQLFAYPYTK | -0.537
HMNQDIIEIGNNIQKIRKKNGISQSVLAEKIDVAGNSIYRMEGATTVMGVDKLINIADALNTSPMDILPAR | 0.0791
HMNQDMINFDKLSVRLKNVLIENNLKTVDSLLNYPAEEFEYLTNLGEKTLQELLTYRNELAASNNIQ | -0.51
HMNQGKLIEMLQEMKEIAHSQNNYLTKNEIANYLGDTVLSKEQLQAVYHYLGENHIEVEGYVYIP | ≥ 1.04
HMNQIATSTQAIITTLSFLNTSSIFKLPVGDTASRPTGVSPGTLRFNSQEDSAEIYKADDGTGSAGWTEVA | -0.296
HMNQIDEATAATITTLNFLNTNSEFKIPVGDTATRPGTPAIGMMRFNSENDKAEIYVADFDGDGNPGWINL | -0.0556
HMNQILDFTREVKNLPEQDKIKIVEALWSIIYSNKDADIYETNLMRRLAGLLYIDNKTMGDIKEKIKQNL | -0.906
HMNQNHFLDSVVEFAKDEASRAFFQKAVKKLGEGLVEEAMGEVKMREADGSVNSRAPYFIALLENWMENR | -0.0208
HMNQNIYVPKLEGLQIEEASSILKSKGLNIEITDSIFRKDAVPGAIIEQTPKPNSRVKTGRNIYVSIYSK | 0.385
HMNQSEMIGSRLKEERLQQKLTLKQLSEKVGLSIGYLSQVERGYGTLSLSALKKLSSALGLEMSTFFD | -2.43
HMNQTGQYENAAKRFNQLITIDSSDKRAYLQLGISNYNLGNKEKADSLFNIIRNSKDKLLIEELDNFLT | -0.102
HMNQYALTDREKNVLGLLVDGLSYKMIADKENISFHTVNAHVRKIYEKLHVHSLAEAVSKALKENL | -2.07
